Test results: patent US20220025071A1 (BIOMOLECULAR, published 2022)

How the values were obtained:
[1] = target: Recombinant human Fc gamma receptor IIIa, CD16a 158V (human, UniProt P08637 17-208)
CD19 = target: T1, CD19 (UniProt P15391 20-291)
T1 sequence (looked up): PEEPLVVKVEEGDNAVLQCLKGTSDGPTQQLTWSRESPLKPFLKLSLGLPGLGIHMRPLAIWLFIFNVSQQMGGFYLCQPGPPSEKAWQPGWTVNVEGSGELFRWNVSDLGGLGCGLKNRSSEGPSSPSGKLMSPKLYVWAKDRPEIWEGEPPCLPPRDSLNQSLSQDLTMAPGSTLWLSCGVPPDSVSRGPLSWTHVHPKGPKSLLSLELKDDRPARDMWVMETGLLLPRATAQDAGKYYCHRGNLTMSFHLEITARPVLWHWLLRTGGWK

[2] = target: T2, Recombinant human Fc gamma receptor IIb/c, CD32b/c (human, UniProt P31994 46-217); experiment: SPR (Carterra LSA)
T2 construct: also called FcRγIIb
T2 sequence (looked up): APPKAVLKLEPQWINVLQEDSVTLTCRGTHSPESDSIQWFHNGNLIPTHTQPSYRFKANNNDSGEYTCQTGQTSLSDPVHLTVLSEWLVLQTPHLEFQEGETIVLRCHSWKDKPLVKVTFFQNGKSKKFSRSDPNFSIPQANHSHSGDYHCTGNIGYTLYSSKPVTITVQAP

Sequence of Recombinant human Fc gamma receptor IIIa, CD16a 158V (P08637 17-208 F176V limits assumed): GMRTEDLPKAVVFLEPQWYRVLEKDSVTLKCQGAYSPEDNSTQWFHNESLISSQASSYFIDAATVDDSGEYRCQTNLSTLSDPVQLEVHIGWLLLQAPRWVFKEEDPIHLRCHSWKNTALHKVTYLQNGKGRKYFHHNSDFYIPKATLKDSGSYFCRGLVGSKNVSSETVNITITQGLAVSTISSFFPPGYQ

Row | Binder | Kd [1] | Kd (CD19) | binding result [2]
1 | B19c66 (one-arm antibody) (antibody, human IgG1, kappa) light: not shown heavy: not shown CPPCPAPELLGGPSVFLFPPKPKDTLMISRTPEVTCVVVDVSHEDPEVKFNWYVDGVEVHNAKTKPREEQYNSTYRVVSVLTVLHQDWLNGKEYKCKVSNKALPAPIEKTISKAKGQPREPQVYVYPPSRDELTKNQVSLTCLVKGFYPSDIAVEWESNGQPENNYKTTPPVLDSDGSFALVSKLTVDKSRWQQGNVFSCSVMHEALHNHYTQKSLSLSPGK | 234 nM | 21.8 nM | 
2 | ACE2Fc-740HA201RF/O24A-DHS (bispecific antibody, also called 15-23) not shown light: not shown heavy: QAYLQQSGAELVRPGASVKMSCKASGYTFTSYSMHWVKQTPRQGLEWIGAIYPGNDDTSYNQKFKGKATLTVDRSSSTAYMQLSSLTSEDSAVYFCTRDYSNYPFDYWGQGTTLTVSSASTKGPSVFPLAPSSKSTSGGTAALGCLVKDYFPEPVTVSWNSGALTSGVHTFPAVLQSSGLYSLSSVVTVPSSSLGTQTYICNVNHKPSNTKVDKKVEPKSCDKTHTCPPCPAPELLGGPSVFLFPPKPKDTLMISRTPEVTCVVVDVSHEDPEVKFNWYVDGVEVHNAKTKPREEQYNSTYRVVSVLTVDHHDWLNGKEYKCKVSNKALPAPIEKTISKAKGQPREPQVYTLPPCRDELTKNQVSLWCLVKGFYPSDIAVEWESNGQPENNYKTTPPVLDSDGSFFLYSKLTVDKSRWQQGNVFSCSVMHEALHSHYTQKSLSLSPG |  |  | no binding (tested: up to 2000 nM)
